Reference: patent US10239925B2, “Peptides and combination of peptides for use in immunotherapy against ovarian cancer and other cancers” (IMMATICS BIOTECHNOLOGIES GMBH, priority 2015, dated 2019)

Molecular target: HLA-A*02:01 (Homo sapiens, UniProt P04439, D140Y/D185E/D98H/E176V/E277Q/G131W/G231S/I119V/I121R/I166T/I218V/L300P/L318F/N151K/N90K/P208A/P217A/Q86G/Q94H/R138H/R169H/T345S)
Assay: MHC binding assay (UV-ligand exchange, anti-β2m ELISA, peptide exchange yield)
Conditions: binding to HLA-A*02:01
In short: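 Yield of stabilized complexes quantified via the β2m light chain in an ELISA (streptavidin capture, 100-fold diluted monomers, HRP anti-β2m 2 ug/ml at 37 °C, TMB, A450). The complexes come from UV-triggered replacement of a photocleavable ligand by the candidate peptide.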

Row | Substance | Peptide exchange (MHC class I binding score, peptide exchange yield)
1 | 494 (ALQPEPIKV; listed as Homo sapiens) [compound 494] | “++” (>20% = ++)
2 | 52 (FLLAHGLGFLL; listed as Homo sapiens) [compound 52] | “++++” (>75% = ++++)
3 | 160 (FLFDEEIEQI; listed as Homo sapiens) [compound 160] | “+++” (>50 = +++)
4 | 258 (ELAERVPAI; listed as Homo sapiens) [compound 258] | “++” (>20% = ++)
5 | 269 (RVLEVGALQAV; listed as Homo sapiens) [compound 269] | “++” (>20% = ++)
6 | 570 (ALANQIPTV; listed as Homo sapiens) [compound 570] | “++” (>20% = ++)
7 | 403 (KLYDRILRV; listed as Homo sapiens) [compound 403] | “++” (>20% = ++)
8 | 288 (NLINEINGV; listed as Homo sapiens) [compound 288] | “+++” (>50 = +++)
9 | 188 (GLFPVTPEAV; listed as Homo sapiens) [compound 188] | “+++” (>50 = +++)
10 | 375 (SLTETIEGV; listed as Homo sapiens) [compound 375] | “++” (>20% = ++)
11 | 272 (ALGNTVPAV; listed as Homo sapiens) [compound 272] | “+++” (>50 = +++)
12 | 70 (GLLDYPVGV; listed as Homo sapiens) [compound 70] | “+++” (>50 = +++)
13 | 253 (GLDAATATV; listed as Homo sapiens) [compound 253] | “++” (>20% = ++)
14 | 240 (ILLEQAFYL; listed as Homo sapiens) [compound 240] | “+++” (>50 = +++)
15 | 12 (SLWPDPMEV; listed as Homo sapiens) [compound 12] | “+++” (>50 = +++)
16 | 431 (SLVNVVPKL; listed as Homo sapiens) [compound 431] | “++” (>20% = ++)
17 | 320 (KMFEFVEPLL; listed as Homo sapiens) [compound 320] | “++++” (>75% = ++++)
18 | 300 (ALLGQTFSL; listed as Homo sapiens) [compound 300] | “+++” (>50 = +++)
19 | 55 (SLLDLETLSL; listed as Homo sapiens) [compound 55] | “++++” (>75% = ++++)
20 | 204 (KIAENVEEV; listed as Homo sapiens) [compound 204] | “++” (>20% = ++)
21 | 327 (GLAPFTEGISFV; listed as Homo sapiens) [compound 327] | “+++” (>50 = +++)
22 | 369 (GLFPEHLIDV; listed as Homo sapiens) [compound 369] | “+++” (>50 = +++)
23 | 222 (NLIENVQRL; listed as Homo sapiens) [compound 222] | “++” (>20% = ++)

Row | Substance | Peptide exchange (MHC class I binding score, peptide exchange yield)
24 | 427 (ALLPLSPYL; listed as Homo sapiens) [compound 427] | “+++” (>50 = +++)
25 | 274 (SLLFSLFEA; listed as Homo sapiens) [compound 274] | “++” (>20% = ++)
26 | 121 (GVVDPRAISVL; listed as Homo sapiens) [compound 121] | “++” (>20% = ++)
27 | 34 (ILVEADSLWVV; listed as Homo sapiens) [compound 34] | “+++” (>50 = +++)
28 | 122 (FLLAEDDIYL; listed as Homo sapiens) [compound 122] | “+++” (>50 = +++)
29 | 407 (YLMDLINFL; listed as Homo sapiens) [compound 407] | “+++” (>50 = +++)
30 | 426 (RLADKSVLV; listed as Homo sapiens) [compound 426] | “+++” (>50 = +++)
31 | 458 (SLIDKLYNI; listed as Homo sapiens) [compound 458] | “++” (>20% = ++)
32 | 412 (YLDDLNEGVYI; listed as Homo sapiens) [compound 412] | “++” (>20% = ++)
33 | 402 (VLFSGALLGL; listed as Homo sapiens) [compound 402] | “++” (>20% = ++)
34 | 455 (SLLKEPQKVQL; listed as Homo sapiens) [compound 455] | “++” (>20% = ++)
35 | 442 (GLLGGGGVLGV; listed as Homo sapiens) [compound 442] | “+++” (>50 = +++)
36 | 181 (LLWAGTAFQV; listed as Homo sapiens) [compound 181] | “+++” (>50 = +++)
37 | 81 (FLFSQLQYL; listed as Homo sapiens) [compound 81] | “++” (>20% = ++)
38 | 449 (KLAEGLDIQL; listed as Homo sapiens) [compound 449] | “+++” (>50 = +++)
39 | 337 (HLLSELEAAPYL; listed as Homo sapiens) [compound 337] | “++++” (>75% = ++++)
40 | 189 (ALQRKLPYV; listed as Homo sapiens) [compound 189] | “+++” (>50 = +++)
41 | 47 (ILLSVPLLVV; listed as Homo sapiens) [compound 47] | “++” (>20% = ++)
42 | 54 (SLLEQGKEPWMV; listed as Homo sapiens) [compound 54] | “+++” (>50 = +++)
43 | 226 (MLYVVPIYL; listed as Homo sapiens) [compound 226] | “++” (>20% = ++)
44 | 428 (KLGHTDILVGV; listed as Homo sapiens) [compound 428] | “++” (>20% = ++)
45 | 94 (YLIDIKTIAI; listed as Homo sapiens) [compound 94] | “++” (>20% = ++)
46 | 74 (ALLDPEVLSIFV; listed as Homo sapiens) [compound 74] | “+++” (>50 = +++)

Row | Substance | Peptide exchange (MHC class I binding score, peptide exchange yield)
47 | 475 (LLLNEEALAQI; listed as Homo sapiens) [compound 475] | “+++” (>50 = +++)
48 | 241 (SLVEVNPAYSV; listed as Homo sapiens) [compound 241] | “+++” (>50 = +++)
49 | 20 (RMIEYFIDV; listed as Homo sapiens) [compound 20] | “+++” (>50 = +++)
50 | 504 (GLSDGNPSL; listed as Homo sapiens) [compound 504] | “++” (>20% = ++)
51 | 571 (LLLTTIPQI; listed as Homo sapiens) [compound 571] | “+++” (>50 = +++)
52 | 433 (AMLNEPWAV; listed as Homo sapiens) [compound 433] | “+++” (>50 = +++)
53 | 492 (SLFDGFADGLGV; listed as Homo sapiens) [compound 492] | “+++” (>50 = +++)
54 | 295 (VLDRESPNV; listed as Homo sapiens) [compound 295] | “+++” (>50 = +++)
55 | 144 (YIMEPSIFNTL; listed as Homo sapiens) [compound 144] | “+++” (>50 = +++)
56 | 546 (VMIAGKVAVV; listed as Homo sapiens) [compound 546] | “+++” (>50 = +++)
57 | 529 (LLADELITV; listed as Homo sapiens) [compound 529] | “+++” (>50 = +++)
58 | 462 (KLAKQPETV; listed as Homo sapiens) [compound 462] | “+++” (>50 = +++)
59 | 601 (SAFPFPVTV; listed as Homo sapiens) [compound 601] | “+++” (>50 = +++)
60 | 444 (GLLRDEALAEV; listed as Homo sapiens) [compound 444] | “+++” (>50 = +++)
61 | 377 (FLLDSSASV; listed as Homo sapiens) [compound 377] | “++” (>20% = ++)
62 | 264 (SLQEQLHSV; listed as Homo sapiens) [compound 264] | “+++” (>50 = +++)
63 | 216 (NLWEDPYYL; listed as Homo sapiens) [compound 216] | “+++” (>50 = +++)
64 | 393 (GLLDTQTSQVLTA; listed as Homo sapiens) [compound 393] | “++” (>20% = ++)
65 | 501 (LLDPNVKSIFV; listed as Homo sapiens) [compound 501] | “+++” (>50 = +++)
66 | 98 (LIIDQADIYL; listed as Homo sapiens) [compound 98] | “+++” (>50 = +++)
67 | 9 (GAAKDLPGV; listed as Homo sapiens) [compound 9] | “++” (>20% = ++)
